From paper PMC3553987

Key:
[1] = test system: U-STAT1 (unphosphorylated STAT1) (human); experiment: EMSA
[2] = target: T1, c-Myc;Max isoform (human;human) (UniProt P01106+P61244); experiment: TIRF-PBM; conditions: 5' amino on one strand, coupled to hydrogel
[3] = target: T1, c-Myc;Max isoform (human;human); experiment: TIRF-PBM; conditions: 5' amino on one strand, coupled to hydrogel; remark: listed apart in the source
[4] = test system: P-STAT1 (phosphorylated STAT1) (human); experiment: TIRF-PBM; conditions: 5' amino on one strand, coupled to hydrogel

T1 sequence (P01106 16-454, chain 1 of 2): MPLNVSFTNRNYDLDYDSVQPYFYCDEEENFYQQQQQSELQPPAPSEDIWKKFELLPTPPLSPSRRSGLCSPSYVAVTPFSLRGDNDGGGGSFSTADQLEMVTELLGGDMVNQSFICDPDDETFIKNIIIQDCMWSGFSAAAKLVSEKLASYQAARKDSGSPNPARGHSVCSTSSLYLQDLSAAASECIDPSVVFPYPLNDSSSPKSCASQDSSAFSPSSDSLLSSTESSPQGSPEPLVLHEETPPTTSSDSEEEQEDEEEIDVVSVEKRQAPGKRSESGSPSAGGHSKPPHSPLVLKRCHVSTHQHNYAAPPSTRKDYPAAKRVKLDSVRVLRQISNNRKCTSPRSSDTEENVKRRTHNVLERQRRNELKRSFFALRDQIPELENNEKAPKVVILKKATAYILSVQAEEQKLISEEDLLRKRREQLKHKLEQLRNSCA
T1 sequence (P61244 2-160, chain 2 of 2): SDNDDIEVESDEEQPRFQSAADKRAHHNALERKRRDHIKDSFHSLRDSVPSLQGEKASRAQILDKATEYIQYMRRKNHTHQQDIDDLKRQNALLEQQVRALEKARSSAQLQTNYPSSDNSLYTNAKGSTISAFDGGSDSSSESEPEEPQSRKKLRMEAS

Question: For GAS cognate DNA (EMSA), which binding signal (fold lower affinity than P-STAT1) [1] is on record?
Answer: > 200

Question: Which results are given for “Myc/Max cognate E-box DNA (probe number not given)”?
Answer: Kd [2]: 3.6 nM; Kd [3]: 0.9 nM

Question: How did the Kd [4] turn out when sequence 70 (optimal GAS, spacer CCG) was run?
Answer: 3.4 nM
